# Measurements: publication PMC5639329
# Like-named read-outs stand apart in the source and are kept apart here.
# Legend:
# AUC [1] = assay: AUC
# AUC [2] = assay: AUC; remark: listed apart in the source
Substance,% aggregates (20-1000 S area) (AUC [1]),% monomer (1-20 S area) (AUC [1]),% aggregates (20-1000 S area) (AUC [2]),% monomer (1-20 S area) (AUC [2]),"% aggregates (20-1000 S area), Hsp70 co-expressed (AUC [1])","% aggregates (20-1000 S area), average of all runs (AUC [1])","% monomer (1-20 S area), Hsp70 co-expressed (AUC [1])","% monomer (1-20 S area), average of all runs (AUC [1])"
"GFP-HttQ74 (huntingtin exon 1 fragment with 74 glutamines fused to GFP, expressed in C. elegans)",97%,3%,–,–,–,–,–,–
"GFP-HttQ28 (huntingtin exon 1 fragment with 28 glutamines fused to GFP, expressed in C. elegans)",70%,30%,–,–,–,–,–,–
"HttQ46-eGFP (huntingtin exon 1 fragment with 46 glutamines fused to eGFP, expressed in D. melanogaster)",76%,24%,79%,21%,78%,83.2%,22%,16.8%
"HttQ97-eGFP (huntingtin exon 1 fragment with 97 glutamines fused to eGFP, expressed in D. melanogaster)",82%,18%,86%,14%,91%,85.6%,9%,14.7%
"HttQ25-eGFP (huntingtin exon 1 fragment with 25 glutamines fused to eGFP, expressed in D. melanogaster)",66%,34%,65%,35%,62%,64.7%,38%,35.3%
"HttQ72-eGFP (huntingtin exon 1 fragment with 72 glutamines fused to eGFP, expressed in D. melanogaster)",93%,7%,90%,10%,–,93.3%,–,6.7%
